Where two headings read alike, the source gives them in different places.
Key:
[1] = biological target: SARS-CoV-2 wild type spike protein (on reporter virus particles) (SARS-CoV-2) (UniProt P0DTC2); assay: cell-based or functional assay
[2] = biological target: SARS-CoV-2 WT RBD (SARS-CoV-2) (UniProt P0DTC2); assay: Octet BLI single point, monovalent
[3] = biological target: SARS-CoV-2 wild type spike protein (on reporter virus particles) (SARS-CoV-2) (UniProt P0DTC2); assay: cell-based or functional assay; remark: listed apart in the source
[4] = biological target: SARS-CoV-1 spike protein (SARS-CoV-1) (UniProt P59594); assay: cell-based or functional assay
[5] = biological target: Bat coronavirus WIV16 spike protein (Bat coronavirus WIV16); assay: cell-based or functional assay

Row | Substance | PsV neutralization IC50 [1] | PsV neutralization IC90 [1] | Kd [2] | PSV IC50 [3] | PsV neutralization IC50 [3] | PsV neutralization IC90 [3] | SARS2 IC50 [3] | WT PsV IC50 [3] | PsV neutralization IC50 [4] | PsV neutralization IC90 [4] | PsV neutralization IC50 [5] | PsV neutralization IC90 [5]
1 | RGN10933 (antibody) | 0.002 µg/mL | 0.024 µg/mL | 3.62 nM | 0.028 µg/mL | 0.0067 µg/mL | 0.081 µg/mL | 0.022 nM | 0.185 nM |  |  |  | 
2 | RGN10987 (antibody) | 0.007 µg/mL | 0.078 µg/mL | 9.13 nM | 0.031 µg/mL |  |  |  | 0.292 nM |  |  |  | 
3 | S309 (antibody) | 0.009 µg/mL | 0.051 µg/mL |  |  |  |  |  | 6.56 nM | 0.01 µg/mL | 0.043 µg/mL | 0.016 µg/mL | 0.305 µg/mL

Reference: patent publication US20260217797A1
